Legend:
[1] = target: T1, human CD123 (IL-3Rα, interleukin-3 receptor alpha chain) (human, UniProt P26951 19-378); experiment: cell-based or functional assay
[2] = target: T1, human CD123 (IL-3Rα, interleukin-3 …); experiment: cell-based or functional assay; remark: listed apart in the source

T1 sequence (P26951 19-378): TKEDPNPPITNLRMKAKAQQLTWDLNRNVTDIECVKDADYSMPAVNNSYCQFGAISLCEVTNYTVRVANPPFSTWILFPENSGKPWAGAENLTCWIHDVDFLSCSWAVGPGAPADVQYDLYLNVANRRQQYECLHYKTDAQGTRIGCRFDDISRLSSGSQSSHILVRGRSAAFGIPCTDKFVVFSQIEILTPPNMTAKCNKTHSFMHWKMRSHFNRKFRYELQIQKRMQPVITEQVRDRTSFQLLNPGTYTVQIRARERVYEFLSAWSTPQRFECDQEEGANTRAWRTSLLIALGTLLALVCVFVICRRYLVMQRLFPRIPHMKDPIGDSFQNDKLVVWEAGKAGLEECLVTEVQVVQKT

| Binder | IC50, in vitro cytotoxicity on MOLM-1 cells [1] | IC50, in vitro cytotoxicity on EOL-1 cells (AML) [2] | IC50, in vitro cytotoxicity on HNT-34 cells (AML) [2] | IC50, in vitro cytotoxicity on JM-1 cells (B-ALL) [2] | IC50, in vitro cytotoxicity on KASUMI-3 cells (AML) [2] | IC50, in vitro cytotoxicity on KCL-22 cells (CML) [2] | IC50, in vitro cytotoxicity on KG-1 cells (AML) [2] | IC50, in vitro cytotoxicity on KO52 cells (AML) [2] | IC50, in vitro cytotoxicity on KOPN8 cells (B-ALL) [2] | IC50, in vitro cytotoxicity on MOLM-1 cells (CML) [2] | IC50, in vitro cytotoxicity on MOLM-13 cells (AML) [2] | IC50, in vitro cytotoxicity on MV4-11 cells (AML) [2] | IC50, in vitro cytotoxicity on OCI-AML2 cells (AML) [2] | IC50, in vitro cytotoxicity on SHI-1 cells (AML) [2] | IC50, in vitro cytotoxicity on THP1 cells (AML) [2] | further results |
| --- | --- | --- | --- | --- | --- | --- | --- | --- | --- | --- | --- | --- | --- | --- | --- | --- |
| huCD123-6Gv4.6-CysMab-D5 (antibody, D5 linked through the engineered Cys in the heavy chain CH3 domain (5th to the last residue of SEQ ID NO: 54)) heavy: not shown light: DIQMTQSPSSLSASVGDRVTITCRASQDINSYLSWFQQKPGKAPKTLIYRVNRLVDGVPSRFSGSGSGNDYTLTISSLQPEDFATYYCLQYDAFPYTFGQGTKVEIKRTVAAPSVFIFPPSDEQLKSGTASVVCLLNNFYPREAKVQWKVDNALQSGNSQESVTEQDSKDSTYSLSSTLTLSKADYEKHKVYACEVTHQGLSSPVTKSFNRGEC | ~0.02 nM |  |  |  |  |  |  |  |  |  |  |  |  |  |  | IC50, in vitro cytotoxicity on EOL-1 cells [1]: ~0.002 nM; IC50, in vitro cytotoxicity on KOPN-8 cells [1]: ~0.005 nM; fold loss of cytotoxicity when CD123 is blocked by the unconjugated chCD123-6 antibody [1]: ≥ 100 fold |
| huCD123-6Gv4.6-D2 (antibody, human IgG1, kappa, D2 linked at Lys residues; sites not stated; D2 linked at Lys residues; sites and drug load not stated) heavy: not shown light: DIQMTQSPSSLSASVGDRVTITCRASQDINSYLSWFQQKPGKAPKTLIYRVNRLVDGVPSRFSGSGSGNDYTLTISSLQPEDFATYYCLQYDAFPYTFGQGTKVEIKRTVAAPSVFIFPPSDEQLKSGTASVVCLLNNFYPREAKVQWKVDNALQSGNSQESVTEQDSKDSTYSLSSTLTLSKADYEKHKVYACEVTHQGLSSPVTKSFNRGEC | ~0.02 nM |  |  |  |  |  |  |  |  |  |  |  |  |  |  | IC50, in vitro cytotoxicity on EOL-1 cells [1]: ~0.002 nM; IC50, in vitro cytotoxicity on KOPN-8 cells [1]: ~0.005 nM; fold loss of cytotoxicity when CD123 is blocked by the unconjugated chCD123-6 antibody [1]: ≥ 100 fold |
| lysine-linked huCD123-6-IGN conjugate with D3 (antibody, human IgG1, kappa, D3 linked at Lys residues; sites not stated; D3 linked at Lys residues; sites and drug load not given) heavy: not shown light: DIQMTQSPSSMSASVGERVTITCRASQDINSYLSWFQQKPGKSPKTLIYRVNRLVDGVPSRFSGSGSGQDYSLTISSLEPEDMGIYYCLQYDAFPYTFGQGTKLEIKRTVAAPSVFIFPPSDEQLKSGTASVVCLLNNFYPREAKVQWKVDNALQSGNSQESVTEQDSKDSTYSLSSTLTLSKADYEKHKVYACEVTHQGLSSPVTKSFNRGEC |  | 0.0033 nM | 0.0032 nM | 0.17 nM | 0.023 nM | 0.95 nM | 6.6 nM | 0.24 nM | 0.022 nM | 0.071 nM | 0.00046 nM | 0.00054 nM | 0.1 nM | 0.029 nM | 0.03 nM | IC50, in vitro cytotoxicity on Granta519 cells (NHL) [2]: 0.0021 nM |
| huCD123-6Rv1.1S2-SeriMab-D8 (antibody, human IgG1, kappa, D8 linked through the oxidized N-terminal Ser on the heavy chain) heavy: not shown light: DIQMTQSPSSMSASVGERVTITCRASQDINSYLSWFQQKPGKSPKTLIYRVNRLVDGVPSRFSGSGSGQDYSLTISSLEPEDMGIYYCLQYDAFPYTFGQGTKLEIKRTVAAPSVFIFPPSDEQLKSGTASVVCLLNNFYPREAKVQWKVDNALQSGNSQESVTEQDSKDSTYSLSSTLTLSKADYEKHKVYACEVTHQGLSSPVTKSFNRGEC | ~0.03 nM |  |  |  |  |  |  |  |  |  |  |  |  |  |  | IC50, in vitro cytotoxicity on HNT-34 cells [1]: ~0.002 nM; IC50, in vitro cytotoxicity on SHI-1 cells [1]: ~0.01 nM; fold loss of cytotoxicity when CD123 is blocked by the unconjugated huCD123-6 antibody [1]: ≥ 100 fold |
| huCD123-6Rv1.1-CX1-1-DM1 (antibody, DM1 linked at Lys residues via the triglycyl CX1-1 linker; sites not stated; DM1 linked at Lys residues via the triglycyl CX1-1 linker; average of 4.3 or 6.7 maytansinoid per antibody, sites not stated) heavy: not shown light: DIQMTQSPSSMSASVGERVTITCRASQDINSYLSWFQQKPGKSPKTLIYRVNRLVDGVPSRFSGSGSGQDYSLTISSLEPEDMGIYYCLQYDAFPYTFGQGTKLEIKRTVAAPSVFIFPPSDEQLKSGTASVVCLLNNFYPREAKVQWKVDNALQSGNSQESVTEQDSKDSTYSLSSTLTLSKADYEKHKVYACEVTHQGLSSPVTKSFNRGEC |  |  |  |  |  |  |  |  |  |  |  |  |  |  |  | IC50, in vitro cytotoxicity on OCI-AML4 cells [1]: 0.07 nM |
| lysine-linked huCD123-6-IGN conjugate with DGN462 (antibody, human IgG1, kappa, DGN462 linked at Lys residues; sites not stated; DGN462 linked at Lys residues; sites and drug load not given) heavy: not shown light: DIQMTQSPSSMSASVGERVTITCRASQDINSYLSWFQQKPGKSPKTLIYRVNRLVDGVPSRFSGSGSGQDYSLTISSLEPEDMGIYYCLQYDAFPYTFGQGTKLEIKRTVAAPSVFIFPPSDEQLKSGTASVVCLLNNFYPREAKVQWKVDNALQSGNSQESVTEQDSKDSTYSLSSTLTLSKADYEKHKVYACEVTHQGLSSPVTKSFNRGEC |  | 0.009 nM | 0.023 nM | 0.32 nM | 2.8 nM | 2 nM | 0.85 nM | 0.39 nM | 0.053 nM | 1.1 nM | 0.0022 nM | 0.0016 nM | 0.14 nM | 0.17 nM | 0.19 nM | IC50, in vitro cytotoxicity on Granta519 cells (NHL) [2]: 0.012 nM |
| lysine-linked huCD123-6-IGN conjugate with D1 (antibody, human IgG1, kappa, D1 linked at Lys residues; sites not stated; D1 linked at Lys residues; sites and drug load not given) heavy: not shown light: DIQMTQSPSSMSASVGERVTITCRASQDINSYLSWFQQKPGKSPKTLIYRVNRLVDGVPSRFSGSGSGQDYSLTISSLEPEDMGIYYCLQYDAFPYTFGQGTKLEIKRTVAAPSVFIFPPSDEQLKSGTASVVCLLNNFYPREAKVQWKVDNALQSGNSQESVTEQDSKDSTYSLSSTLTLSKADYEKHKVYACEVTHQGLSSPVTKSFNRGEC |  | 0.0047 nM | 0.0059 nM | 0.41 nM | 0.14 nM | 0.29 nM | 4.1 nM | 0.41 nM | 0.03 nM | 0.21 nM | 0.0012 nM | 0.0013 nM | 0.21 nM | 0.032 nM | 0.058 nM |  |

Reference: patent US20180079819A1 (IMMUNOGEN, published 2018)
